Experimental data from patent publication US20250051428A1 (UNIVERSITY OF BRITISH COLUMBIA, published 2025).

B1: 301-17 (hybridoma-purified IgG3) (antibody, V domains shown)
VH: QVQLQQPGAELVKPGASVKMSCKASGYSFTSYWINWVKQRPGQGLEWIGDVHPGRGVSTYNAKFKSKATLTLDTSSSTAYMQLSSLTSEDSAVYYCSRSHGNTYWFFDVWGAGTTVTVSS
VL: DVLMTQTPLSLPVSLGDQASISCRSSQSIVHSNGNTYLEWYLQKPGQSPKLLIYKVSNRFSGVPDRFSGSGSGTDFTLKISRVEAEDLGVYYCFQGSHVPFTFGSGTKLEIK
notes: Mouse hybridoma monoclonal, IgG3
B2: Recombinant 301-17 IgG2a (antibody)
heavy: QVQLQQPGAELVKPGASVKMSCKASGYSFTSYWINWVKQRPGQGLEWIGDVHPGRGVSTYNAKFKSKATLTLDTSSSTAYMQLSSLTSEDSAVYYCSRSHGNTYWFFDVWGAGTTVTVSSAKTTAPSVYPLAPVCGDTTGSSVTLGCLVKGYFPEPVTLTWNSGSLSSGVHTFPAVLQSDLYTLSSSVTVTSSTWPSQSITCNVAHPASSTKVDKKIEPRGPTIKPCPPCKCPAPNLLGGPSVFIFPPKIKDVLMISLSPIVTCVVVDVSEDDPDVQISWFVNNVEVHTAQTQTHREDYNSTLRVVSALPIQHQDWMSGKEFKCKVNNKDLPAPIERTISKPKGSVRAPQVYVLPPPEEEMTKKQVTLTCMVTDFMPEDIYVEWTNNGKTELNYKNTEPVLDSDGSYFMYSKLRVEKKNWVERNSYSCSVVHEGLHNHHTTKSFSRTPGK
light: DVLMTQTPLSLPVSLGDQASISCRSSQSIVHSNGNTYLEWYLQKPGQSPKLLIYKVSNRFSGVPDRFSGSGSGTDFTLKISRVEAEDLGVYYCFQGSHVPFTFGSGTKLEIKRADAAPTVSIFPPSSEQLTSGGASVVCFLNNFYPKDINVKWKIDGSERQNGVLNSWTDQDSKDSTYSMSSTLTLTKDEYERHNSYTCEATHKTSTSPIVKSFNRNEC

What was measured:
[1] = target: T1, commercially-prepared stable A-beta42 Oligomers (SynAging SAS) (human); experiment: ProteOn biosensor, antibody captured with anti-mouse IgG or amine-coupled on GLM chip, AbO 12.3 nM to 1 µM; hybridoma-purified antibody
T1 construct: Bought oligomer preparation; also called AbO; SynAging AbO
Description: (§1) AbO 3 fold-dilutions were used: 1 μM, 0.33 μM, 0.11 μM, 37 nM, 12.3 nM. Assay buffer was PBS-E+Tween 20+2 mg/ml BSA.

[2] = target: T1, commercially-prepared stable A-beta42 …; experiment: ProteOn biosensor, antibody captured with anti-mouse IgG or amine-coupled on GLM chip, AbO 12.3 nM to 1 µM; upper end of the printed range 16.2-19.5 nM; test or coupling not stated
Description: as §1

[3] = target: T2, cyclo(CGHHQKG) conjugated to BSA (also: conjugated to BSA, site not given here); experiment: ProteOn biosensor, antibody amine-coupled to GLH chip, cyclo-BSA 111 pM to 9 nM
T2 construct: also called Cyclic Peptide; cyclopeptide
T2 peptide: cyclo(CGHHQKG)
Description: Cyclo-BSA 3-fold dilutions were used from 9 nM to 111 pM. Assay buffer was PBS-E+0.05% Tween+10 mg/ml BSA.

[4] = target: T1, commercially-prepared stable A-beta42 …; experiment: ProteOn biosensor, antibody captured with anti-mouse IgG or amine-coupled on GLM chip, AbO 12.3 nM to 1 µM; lower end of the printed range 16.2-19.5 nM; test or coupling not stated
Description: as §1

T1 sequence (peptide, as listed by the source): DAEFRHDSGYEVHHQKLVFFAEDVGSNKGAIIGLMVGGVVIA

Binder | Kd [1] [nM] | Kd [2] [nM] | Kd [3] [nM] | Kd [4] [nM]
B1 | ~26.9 | – | – | –
B2 | – | 16.2 to 19.5 | ~0.017 | 16.2 to 19.5
